Results: article PMC314469, “Protein Interaction Networks by Proteome Peptide Scanning” (PLoS Biology, 2004)

T1: Abp1 SH3 (ABP1_YEAST), P15891
T1 chain: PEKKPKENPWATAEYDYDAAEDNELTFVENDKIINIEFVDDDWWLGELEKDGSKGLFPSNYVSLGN

B1: YDL129W 167-179 (peptide)
chain: ASSAELRPLLERP
B2: YLR335W 584-596 (peptide)
chain: ATKVDATPEESKP
B3: YAR033W 173-185 (peptide)
chain: ATSIGNSPVTAKP
B4: YJL041W 183-196 (peptide)
chain: ATTNDDKKTEPDKP
B5: YPL150W 616-628 (peptide)
chain: DGKVSPPPIRNRP
B6: YMR016C 645-657 (peptide)
chain: ASTLGITPADSKP
B7: YLR106C 2240-2252 (peptide)
chain: SSQEDGQPRVLKP
B8: YOR175C 203-215 (peptide)
chain: SEMFRDLPESKKP
B9: YOR068C 68-80 (peptide)
chain: SSSSSGLPATDKP
B10: YGR013W 516-529 (peptide)
chain: DEGYRESELPPTKP
B11: YGL044C 219-231 (peptide)
chain: SKVDDLIPLASRP
B12: YPL100W 257-269 (peptide)
chain: SFTAYSSPKKNKP
B13: YPR121W 328-341 (peptide)
chain: DESFTASDAVPKKP
B14: YCR077C 93-105 (peptide)
chain: DGTAAAGPLDLKP
B15: YDR200C 169-182 (peptide)
chain: ATFETKFLVVPFKP
B16: YOL125W 257-270 (peptide)
chain: DDFSEIKSNSPSKP
B17: YGL197W 684-696 (peptide)
chain: DEEDDEDPVSPKP
B18: YIL029C 115-127 (peptide)
chain: SSQGINVPGTKKP
B19: YGL170C 266-278 (peptide)
chain: DFRNPLLPIDNRP
B20: YMR003W 182-194 (peptide)
chain: SLWWNLEPQESKP
B21: YHR009C 132-144 (peptide)
chain: AYNLNVPPPKKRP
B22: YGR134W 1092-1104 (peptide)
chain: DGKILPLPKADKP
B23: YDR407C 928-940 (peptide)
chain: SVRIIKLPTVIKP
B24: YKL196C 76-89 (peptide)
chain: SGVLITDKEYPVRP
B25: YKL020C 937-950 (peptide)
chain: DELPKYEDLFPKKP
B26: YEL007W 23-36 (peptide)
chain: ATLDGKLKHIPRRP
B27: YML059C 513-525 (peptide)
chain: ASSKLKKPPKAKP
B28: YER027C 294-307 (peptide)
chain: DGYTRFHDETPAKP
B29: YKR089C 707-719 (peptide)
chain: ASTYGRSPSGFRP
B30: YLR374C 54-66 (peptide)
chain: SHTKNTHPDFSKP
B31: YLR077W 535-547 (peptide)
chain: SAKPMNIPEVLKP
B32: YLR281C 14-27 (peptide)
chain: AVLLIKKNKLPPRP
B33: YER090W 132-144 (peptide)
chain: DSVRYFEPKTRRP
B34: YDR096W 741-753 (peptide)
chain: DAGPSFSPLHKKP
B35: YIL111W 69-82 (peptide)
chain: AWYISYGEWGPRRP
B36: YIL031W 418-430 (peptide)
chain: ATTEFETPELFKP
B37: YOL055C 307-320 (peptide)
chain: DESFTASDVIPKKP
B38: YOL084W 269-281 (peptide)
chain: DDLETYVPHKKRP
B39: YPL019C 671-683 (peptide)
chain: ASSFQLPPGVKKP
B40: YKL220C 443-456 (peptide)
chain: DDLIRLTVKKPARP
B41: YLR450W 583-596 (peptide)
chain: SVYALSSQDEPIRP
B42: YKL103C 202-214 (peptide)
chain: SRIPSLAPHFGKP
B43: YLR417W 380-392 (peptide)
chain: DESTVNEPKTRRP
B44: YDR464W 561-574 (peptide)
chain: DASSVELTEVPSKP
B45: YER047C 185-198 (peptide)
chain: DAENIRVNFVPSKP
B46: YGL133W 239-251 (peptide)
chain: ASSKMGAPWSVKP
B47: YBR257W 10-23 (peptide)
chain: DSLFTKSLEDPEKP
B48: YPL100W 471-484 (peptide)
chain: DDGTFSIYSIPSKP
B49: YMR147W 118-131 (peptide)
chain: DENEKESRHYPIKP
B50: YMR153W 198-210 (peptide)
chain: DGKPTATPSPFRP
B51: YMR244W 79-91 (peptide)
chain: SSYGSWSPYASKP
B52: YLR430W 2217-2229 (peptide)
chain: ASSSPFIPKKRKP
B53: YDR135C 180-193 (peptide)
chain: SASILLLEALPKKP
B54: YER095W 332-344 (peptide)
chain: DGGMAFNPDPKKP
B55: YOR056C 307-319 (peptide)
chain: SFKIFPLPKDGKP
B56: YLR410W 340-352 (peptide)
chain: DGKTMTKPFVEKP
B57: YJL041W 251-264 (peptide)
chain: ASQPEPTTNEPAKP
B58: YOR066W 218-231 (peptide)
chain: SDTDTLPEAPPAKP
B59: YPR068C 139-151 (peptide)
chain: SINNSEVPTNDKP

Target: T1, Abp1 SH3 (ABP1_YEAST), P15891
Assay: SPOT array

normalised SPOT signal, Boehringer light units (BLU); mean over the file's lines of this peptide	Binder
78.5	B1
103	B2
71	B3
63.8	B4
6430	B5
93.1	B6
118	B7
86.3	B8
59.6	B9
62.8	B10
111	B11
324	B12
112	B13
47.1	B14
74	B15
58.4	B16
90.3	B17
178	B18
138	B19
68	B20

normalised SPOT signal, Boehringer light units (BLU); mean over the file's lines of this peptide	Binder
1510	B21
18.9	B22
175	B23
56	B24
132	B25
630	B26
2150	B27
101	B28
517	B29
39.3	B30
144	B31
9430	B32
659	B33
231	B34
78.4	B35
78.7	B36
142	B37
120	B38
143	B39
446	B40

normalised SPOT signal, Boehringer light units (BLU); mean over the file's lines of this peptide	Binder
37.7	B41
99.3	B42
95.6	B43
25.2	B44
133	B45
146	B46
113	B47
169	B48
104	B49
158	B50
46.2	B51
2110	B52
112	B53
105	B54
102	B55
171	B56
114	B57
108	B58
72.1	B59
